This is an account of results in patent US20150005474A1 (GLYCOTOPE, published 2015).

This experiment concerns the target MUC1 (polymorphic epithelial mucin) on human tumor cells (human, UniProt P15941 24-1255). In words: cell binding test with radiolabelled antibody on K562 cells, Scatchard analysis.

Chain of MUC1 (polymorphic epithelial mucin) on human tumor cells (P15941 24-1097, chain 1 of 2): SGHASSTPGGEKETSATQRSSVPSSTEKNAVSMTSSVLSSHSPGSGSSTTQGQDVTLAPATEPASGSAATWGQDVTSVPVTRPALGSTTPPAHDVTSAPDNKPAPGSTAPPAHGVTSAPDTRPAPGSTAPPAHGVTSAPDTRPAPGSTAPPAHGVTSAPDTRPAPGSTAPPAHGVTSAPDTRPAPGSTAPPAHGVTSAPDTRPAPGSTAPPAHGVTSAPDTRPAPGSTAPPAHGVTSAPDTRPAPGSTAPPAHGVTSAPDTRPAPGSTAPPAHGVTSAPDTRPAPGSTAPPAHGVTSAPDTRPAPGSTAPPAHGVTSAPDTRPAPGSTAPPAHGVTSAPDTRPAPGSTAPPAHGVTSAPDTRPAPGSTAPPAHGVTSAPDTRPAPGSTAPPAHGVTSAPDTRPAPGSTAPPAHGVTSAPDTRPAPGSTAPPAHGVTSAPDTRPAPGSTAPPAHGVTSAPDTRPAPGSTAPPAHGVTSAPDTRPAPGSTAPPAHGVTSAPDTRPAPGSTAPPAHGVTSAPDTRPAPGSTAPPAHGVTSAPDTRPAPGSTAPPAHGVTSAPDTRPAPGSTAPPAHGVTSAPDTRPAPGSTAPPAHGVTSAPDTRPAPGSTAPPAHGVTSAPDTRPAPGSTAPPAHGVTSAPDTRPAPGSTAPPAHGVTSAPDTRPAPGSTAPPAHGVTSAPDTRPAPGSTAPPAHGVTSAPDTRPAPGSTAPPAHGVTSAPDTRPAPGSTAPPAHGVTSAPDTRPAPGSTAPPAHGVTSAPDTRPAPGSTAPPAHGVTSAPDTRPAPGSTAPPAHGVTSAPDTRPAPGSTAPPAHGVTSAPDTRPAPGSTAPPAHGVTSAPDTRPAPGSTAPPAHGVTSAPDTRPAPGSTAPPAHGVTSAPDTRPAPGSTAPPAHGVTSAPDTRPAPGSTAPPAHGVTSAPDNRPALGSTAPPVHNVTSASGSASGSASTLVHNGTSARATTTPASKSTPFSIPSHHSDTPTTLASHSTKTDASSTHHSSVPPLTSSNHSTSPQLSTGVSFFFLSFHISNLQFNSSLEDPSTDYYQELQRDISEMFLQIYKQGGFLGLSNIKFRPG
Chain of MUC1 (polymorphic epithelial mucin) on human tumor cells (P15941 1098-1255, chain 2 of 2): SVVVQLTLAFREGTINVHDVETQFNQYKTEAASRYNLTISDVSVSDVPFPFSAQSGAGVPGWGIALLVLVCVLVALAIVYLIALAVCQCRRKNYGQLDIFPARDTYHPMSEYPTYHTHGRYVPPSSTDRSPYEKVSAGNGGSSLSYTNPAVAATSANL

B1: HMFG-1 (antibody, V domains shown)
VH: QVQLVQSGAEVKKPGASVKVSCKASGYTFSAYWIEWVRQAPGKGLEWVGEILPGSNNSRYNEKFKGRVTVTRDTSTNTAYMELSSLRSEDTAVYYCARSYDFAWFAYWGQGTLVTVSS
VL: DIQMTQSPSSLSASVGDRVTITCKSSQSLLYSSNQKIYLAWYQQKPGKAPKLLIYWASTRESGVPSRFSGSGSGTDFTFTISSLQPEDIATYYCQQYYRYPRTFGQGTKVEIKR
The molecule B1 showed a Ka of 2.7e+08 M⁻¹.
